Experiments:
Assay in all cases: ELISA
HA of A/Hong Kong/1/1968 = HA of A/Hong Kong/1/1968 (influenza A virus A/Hong Kong/1/1968 …, UniProt Q91MA7)
HA of A/Japan/305+/1957 = HA of A/Japan/305+/1957 (Influenza A virus A/Japan/305/1957 …, UniProt P03451)
[1] = target: HA of A/Thailand/CU44/2006 (Influenza A virus A/Thailand/CU44/2006 …, UniProt A7LI25, strain)
[2] = target: HA of A/Solomon Islands/03/2006 (Influenza A virus A/Solomon …, UniProt A7Y8I1, strain)

Measured: binding result

B1: C05 WT (antibody, V domains shown)
VH: QVQLQESGGGLVQPGESLRLSCVGSGSSFGESTLSYYAVSWVRQAPGKGLEWLSIINAGGGDIDYADSVEGRFTISRDNSKETLYLQMTNLRVEDTGVYYCAKHMSMQQVVSAGWERADLVGDAFDVWGQGTMVTVSS
VL: DIQLTQSPSSLSASVGDRVTLTCQASQDIRKFLNWYQQKPGKGPKLLIYDASNLQRGVPSRFSGGGSGTDFTLIISSLQPEDVGTYYCQQYDGLPFTFGGGTKVVIK
binds: all assays above

Reference: PMC6358683 (Proceedings of the National Academy of Sciences of the …, 2019)
